According to patent publication US20260274955A1 (JANUX THERAPEUTICS, published 2026):

B1: Phage-1218 (peptide)
peptide: WCSEVFSYPWPACL
B2: Phage-1212 (peptide)
peptide: SCTAGFRIHWPMCF
B3: Phage-1217 (peptide)
peptide: TCSAGASYSWPYCM
B4: Phage-1219 (peptide)
peptide: SCTAVFSYALSPCF
B5: Phage-1208 (peptide)
peptide: TCAAGATWTWPTCM
B6: Phage-1207 (peptide)
peptide: TCAAGATYNWPWCF
B7: Phage-1213 (peptide)
peptide: SCAAGAAYAWPWCL
B8: Phage-1202 (peptide)
peptide: TCSAGAHYEWPKCL
B9: Phage-1206 (peptide)
peptide: TCAAGAHYEWPQCF
B10: Phage-1211 (peptide)
peptide: SCAAGFHYEWPQCF
B11: Phage-1209 (peptide)
peptide: PCAAGAQWSWPMCL
B12: Phage-1210 (peptide)
peptide: SCAAGSTWAWPACL
B13: Phage-1205 (peptide)
peptide: TCAAGANYAWPVCL
B14: Phage-1200 (peptide)
peptide: QCAAGATYPWPVCL
B15: Phage-1216 (peptide)
peptide: SCAAVFSFNWPECF
B16: Phage-1214 (peptide)
peptide: MCTAGFSFNWPECL
B17: Phage-1215 (peptide)
peptide: LCDQFFHYNWPACL
B18: Phage-332 (peptide)
peptide: YCEGHSWEYIGKCL
B19: Phage-312 (peptide)
peptide: YCAGHAPQYMEKCL
B20: Phage-333 (peptide)
peptide: YCDGHSALYMSKCL
B21: Phage-322 (peptide)
peptide: YCDGHIDEYLQKCL
B22: Phage-335 (peptide)
peptide: YCEGHTSEYMNKCL
B23: Phage-331 (peptide)
peptide: YCEGHSPLYMSKCL
B24: Phage-317 (peptide)
peptide: YCEGHLQEYMEKCL
B25: Phage-389 (peptide)
peptide: YCVGHLQEYMEKCL
B26: Phage-337 (peptide)
peptide: YCDGHLAMYMDKCL
B27: Phage-348 (peptide)
peptide: YCEGHRPEYMAKCL
B28: Phage-318 (peptide)
peptide: YCEGHIPEYMAKCL
B29: Phage-336 (peptide)
peptide: YCEGHRSEYMAKCL
B30: Phage-325 (peptide)
peptide: YCEGHMSEYMAKCL
B31: Phage-326 (peptide)
peptide: YCDGHSWEYIQKCL
B32: Phage-314 (peptide)
peptide: YCDGHLKEYMAKCL
B33: Phage-446 (peptide)
peptide: YCDGHAIEYMAKCL
B34: Phage-371 (peptide)
peptide: YCDGHLSEYMFKCL
B35: Phage-323 (peptide)
peptide: YCEGHVAEYMLKCL
B36: Phage-344 (peptide)
peptide: YCEGHSQEYMQKCL
B37: Phage-443 (peptide)
peptide: YCEGHSAEYMQKCL
B38: Phage-316 (peptide)
peptide: YCDGHLPEYMGKCL
B39: Phage-385 (peptide)
peptide: YCEGHSPEYMRKCL
B40: Phage-329 (peptide)
peptide: YCEGHLPEYMMKCL
B41: Phage-377 (peptide)
peptide: YCEGHLPAYMQKCL
B42: Phage-349 (peptide)
peptide: YCEGHLPEYMRKCL
B43: Phage-330 (peptide)
peptide: YCDGHLPEYMRKCL
B44: Phage-321 (peptide)
peptide: YCEGHSPEYMWKCL
B45: Phage-328 (peptide)
peptide: YCEGHSYEYMWKCL
B46: Phage-447 (peptide)
peptide: YCEGHKPEYMQKCL
B47: Phage-315 (peptide)
peptide: YCDGHRPEYMEKCL
B48: Phage-324 (peptide)
peptide: YCEGHLSEYMSKCL
B49: Phage-313 (peptide)
peptide: YCAGHLPQYIAKCL
B50: Phage-327 (peptide)
peptide: YCEGHSLEYMAKCL
B51: Phage-319 (peptide)
peptide: YCDGHSPEYMPKCL
B52: Phage-320 (peptide)
peptide: YCDGHLAEYMPKCL
B53: Phage-375 (peptide)
peptide: YCDGHLAEYMVKCL
B54: Phage-334 (peptide)
peptide: YCDGHTGVYFYKCL
B55: Phage-339 (peptide)
peptide: YCEGHAAEYMSKCL
B56: Phage-338 (peptide)
peptide: YCDGHMPEYLAKCL

The binders below were run against anti-CD28 Fab (SEQ ID NOs: 202, 203) (assay: phage ELISA, Fab on plate;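 note: ELISA of crude clonal phage supernatants on the plate, wells preloaded with CD28 antigen or only blocking buffer, captured phage read out via HRP-linked anti-M13 antibody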).
Target sequence in this assay (VH, as listed by the source, chain 1 of 2): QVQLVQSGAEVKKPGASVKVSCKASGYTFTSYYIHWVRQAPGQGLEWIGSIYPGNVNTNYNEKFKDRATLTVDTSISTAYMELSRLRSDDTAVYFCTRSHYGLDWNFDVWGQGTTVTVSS
Target sequence in this assay (VL, as listed by the source, chain 2 of 2): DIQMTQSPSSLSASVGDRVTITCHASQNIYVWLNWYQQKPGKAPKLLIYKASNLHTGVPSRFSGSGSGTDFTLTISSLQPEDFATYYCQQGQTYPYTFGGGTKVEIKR
Procedure: After panning, phage infected bacteria were plated out and colonies picked into 96 well blocks. Clonal phage was then amplified and separated from bacterial cells via centrifugation.
Clonal phage were harvested as crude supernatants and screened via standard ELISAs. […] Prior to the addition of clonal phage, wells were incubated with blocking buffer and CD28 antigen or blocking buffer alone. Without washing or aspirating, clonal phage supernatants were then added to the wells and incubated for a short time. Wells were then washed followed by detection of bound phage using a horse radish conjugated anti-M13 antibody. Clonal phage of interest were then sent for sequence analysis.

| Binder | Anti-CD28 Fab signal |
| --- | --- |
| B1 | 0.99 |
| B2 | 1.06 |
| B3 | 1 |
| B4 | 0.99 |
| B5 | 1.07 |
| B6 | 1.07 |
| B7 | 1.05 |
| B8 | 1.12 |
| B9 | 1.08 |
| B10 | 1.06 |
| B11 | 1.07 |
| B12 | 1.07 |
| B13 | 1.09 |
| B14 | 1.13 |
| B15 | 1.01 |
| B16 | 1.05 |
| B17 | 1.04 |

These binders were tested against T1, anti-CD28 Fab (SEQ ID NOs: 202, 203) (assay: phage binding ELISA; Fab wells pre-incubated with CD28 antigen (competitor);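 note: clonal phage supernatants added to wells preincubated with CD28 antigen in blocking buffer versus blocking buffer alone, washed, bound phage read by HRP-conjugated anti-M13 antibody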).
T1 construct: biotinylated and captured on neutravidin coated plates in the phage ELISA
T1 sequence (VH, as listed by the source, chain 1 of 2): as the sequence (VH, as listed by the source, chain 1 of 2) above
T1 sequence (VL, as listed by the source, chain 2 of 2): as the sequence (VL, as listed by the source, chain 2 of 2) above
Procedure: (§1) Clonal phage were harvested as crude supernatants and screened via standard ELISAs. […] Prior to the addition of clonal phage, wells were incubated with blocking buffer and CD28 antigen or blocking buffer alone. Without washing or aspirating, clonal phage supernatants were then added to the wells and incubated for a short time. Wells were then washed followed by detection of bound phage using a horse radish conjugated anti-M13 antibody.

| Binder | Anti-CD28 Fab signal in the presence of CD28 |
| --- | --- |
| B18 | 0.07 |
| B19 | 0.08 |
| B20 | 0.08 |
| B21 | 0.06 |
| B22 | 0.06 |
| B23 | 0.09 |
| B24 | 0.1 |
| B25 | 0.06 |
| B26 | 0.08 |
| B27 | 0.07 |
| B28 | 0.06 |
| B29 | 0.06 |
| B30 | 0.11 |
| B31 | 0.07 |
| B32 | 0.07 |
| B33 | 0.08 |
| B34 | 0.1 |
| B35 | 0.05 |
| B36 | 0.05 |
| B37 | 0.29 |

| Binder | Anti-CD28 Fab signal in the presence of CD28 |
| --- | --- |
| B38 | 0.11 |
| B39 | 0.08 |
| B40 | 0.27 |
| B41 | 0.07 |
| B42 | 0.06 |
| B43 | 0.08 |
| B44 | 0.09 |
| B45 | 0.08 |
| B46 | 0.06 |
| B47 | 0.06 |
| B48 | 0.09 |
| B49 | 0.09 |
| B50 | 0.08 |
| B51 | 0.08 |
| B52 | 0.07 |
| B53 | 0.08 |
| B54 | 0.08 |
| B55 | 0.07 |
| B56 | 0.07 |

The binders below were run against T1, anti-CD28 Fab (SEQ ID NOs: 202, 203) (assay: phage binding ELISA; biotinylated Fab on neutravidin plate;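 note: clonal phage supernatants added to Fab wells pretreated with CD28 antigen or with blocking buffer only, bound phage read out via HRP-linked anti-M13 antibody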).
Procedure: as §1

| Binder | Anti-CD28 Fab (SEQ ID NOs: 202, 203) signal |
| --- | --- |
| B18 | 1.87 |
| B19 | 1.9 |
| B20 | 1.87 |
| B21 | 1.88 |
| B22 | 1.87 |
| B23 | 1.87 |
| B24 | 1.89 |
| B25 | 1.76 |
| B26 | 1.86 |
| B27 | 1.83 |
| B28 | 1.89 |
| B29 | 1.86 |
| B30 | 1.88 |
| B31 | 1.88 |
| B32 | 1.9 |
| B33 | 1.69 |
| B34 | 1.79 |
| B35 | 1.88 |
| B36 | 1.84 |
| B37 | 1.7 |

| Binder | Anti-CD28 Fab (SEQ ID NOs: 202, 203) signal |
| --- | --- |
| B38 | 1.89 |
| B39 | 1.77 |
| B40 | 1.88 |
| B41 | 1.78 |
| B42 | 1.83 |
| B43 | 1.88 |
| B44 | 1.89 |
| B45 | 1.88 |
| B46 | 1.69 |
| B47 | 1.9 |
| B48 | 1.88 |
| B49 | 1.9 |
| B50 | 1.88 |
| B51 | 1.89 |
| B52 | 1.89 |
| B53 | 1.79 |
| B54 | 1.87 |
| B55 | 1.86 |
| B56 | 1.86 |
